Holding throughout (experiment): pull-down; GST-ferric Ngb (or GST alone) immobilised on glutathione-Sepharose 4B beads, incubated with truncated Gαi1; 10 mM HEPES, 150 mM NaCl, 10 mM MgCl2, 10 uM GDP, 0.1% Tween20, pH 7.4; 1 h at 4 °C; Western blot with anti-Gαi1 monoclonal antibody
Details in all cases: both partners purified
On the technique in general: In western blotting, separated proteins are transferred to a membrane and probed.

Experiment [1] deals with T1, human WT truncated Gαi1 protein (residues 26-354), GDP-bound form (human, UniProt P63096 26-354).
T1 construct: human Gαi1 (α-subunit of heterotrimeric Gi protein), residues 26-354; lacks the N-terminal disordered region (25 amino acids); Cloned in pET151/D-TOPO with a TEV site after the His6-tag; also called WT Gαi1; not shown: His6, N-terminal, cleaved
T1 sequence (P63096 26-354): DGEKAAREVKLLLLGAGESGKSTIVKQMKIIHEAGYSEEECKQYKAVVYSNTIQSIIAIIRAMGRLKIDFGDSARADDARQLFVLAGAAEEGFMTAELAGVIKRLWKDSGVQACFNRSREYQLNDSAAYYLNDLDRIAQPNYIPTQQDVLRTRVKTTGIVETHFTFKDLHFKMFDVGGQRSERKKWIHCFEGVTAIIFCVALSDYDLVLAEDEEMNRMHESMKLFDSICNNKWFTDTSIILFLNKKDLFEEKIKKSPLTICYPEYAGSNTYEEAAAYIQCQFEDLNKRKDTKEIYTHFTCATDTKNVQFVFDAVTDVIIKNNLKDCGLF

The target of experiment [2] is T2, human truncated Gαi1 K67A single mutant, GDP-bound form (human, UniProt P63096 26-354, K67A).
T2 construct: human Gαi1, residues 26-354, with K67A; site-directed mutant of the truncated Gαi1 construct; also called K67A Gαi1; not shown: His6, N-terminal, cleaved
T2 sequence (P63096 26-354 K67A): as the sequence (P63096 26-354) above, with K42A counted along it

The target of experiment [3] is T3, human truncated Gαi1 E238N, E239Q double mutant, GDP-bound form (human, UniProt P63096 26-354, E238N | E239Q).
T3 construct: human Gαi1, residues 26-354, with E238N and E239Q (the corresponding residues of human Gαs); site-directed mutant of the truncated Gαi1 construct; also called E238N, E239Q Gαi1 double mutant; not shown: His6, N-terminal, cleaved
T3 sequence (P63096 26-354 E238N/E239Q): as the sequence (P63096 26-354) above, with E213N, E214Q counted along it

For experiment [4], the target named is T4, human truncated Gαi1 R86A single mutant, GDP-bound form (human, UniProt P63096 26-354, R86A).
T4 construct: human Gαi1, residues 26-354, with R86A; site-directed mutant of the truncated Gαi1 construct; also called R86A Gαi1; not shown: His6, N-terminal, cleaved
T4 sequence (P63096 26-354 R86A): as the sequence (P63096 26-354) above, with R61A counted along it

Experiment [5] concerns the target T5, human truncated Gαi1 E236Q single mutant, GDP-bound form (human, UniProt P63096 26-354, E236Q).
T5 construct: human Gαi1, residues 26-354, with E236Q; site-directed mutant of the truncated Gαi1 construct; also called E236Q Gαi1; not shown: His6, N-terminal, cleaved

Experiment [6] addresses T6, human truncated Gαi1 K180L single mutant, GDP-bound form (human, UniProt P63096 26-354, K180L).
T6 construct: human Gαi1, residues 26-354, with K180L (Leu is the corresponding residue of human Gαs); site-directed mutant of the truncated Gαi1 construct; also called K180L Gαi1; not shown: His6, N-terminal, cleaved

The record followed here is paper PMC4842972, “Identification of residues crucial for the interaction between human neuroglobin and the α-subunit of heterotrimeric Gi protein” (Scientific Reports, 2016).

Numbering of substitutions follows the chain as printed. In names and notes the source's numbering stands.

T5 sequence (P63096 26-354 E236Q): as the sequence (P63096 26-354) above, with E211Q counted along it
T6 sequence (P63096 26-354 K180L): as the sequence (P63096 26-354) above, with K155L counted along it

B1: GST-human ferric E151Q Ngb mutant (natural protein)
chain: MERPEPELIRQSWRAVSRSPLEHGTVLFARLFALEPDLLPLFQYNCRQFSSPEDCLSSPEFLDHIRKVMLVIDAAVTNVEDLSSLEEYLASLGRKHRAVGVKLSSFSTVGESLLYMLEKCLGPAFTPATRAAWSQLYGAVVQAMSRGWDGQ
notes: human neuroglobin (Ngb) with E151Q (the residue of bush baby Ngb at this position); in pGEX-4T-1; Ferric form; made by site-directed mutagenesis of GST-Ngb; also called GST-human Ngb mutant; source: E. coli BL21 (DE3), purified (glutathione-Sepharose 4B)
For B1, the binding result in experiment [1] is recorded as “binds”.

B2: GST-human ferric R97C Ngb mutant (natural protein)
chain: B1 chain with R97C, Q151E
notes: human neuroglobin (Ngb) with R97C (the residue of megabat Ngb at this position); in pGEX-4T-1; Ferric form; made by site-directed mutagenesis of GST-Ngb; also called GST-human Ngb mutant; source: E. coli BL21 (DE3), purified (glutathione-Sepharose 4B)
Turning to B2, the binding result in experiment [1] was “binds”.

B3: GST-human ferric WT Ngb (neuroglobin) (natural protein)
chain: B1 chain with Q151E
notes: human neuroglobin (Ngb); human Ngb cDNA cloned into pGEX-4T-1; also called GST-human WT Ngb; GST-human Ngb; source: E. coli BL21 (DE3), purified (glutathione-Sepharose 4B)
As for B3, the binding result in experiment [2], in experiment [3], in experiment [4], in experiment [5], in experiment [6] and in experiment [1] was “binds” throughout.
